Values of other authors in article PMC9499636.
Blank lines part the entries; values can stand above or below the substance they belong to.

Key:
[1] = target: Ship2 Sam (Homo sapiens) (UniProt O15357); test: ITC
[2] = target: Ship2 Sam (Homo sapiens) (UniProt O15357); test: SPR
[3] = target: EphA2-Sam Sam (Homo sapiens) (UniProt P29317); test: SPR
[4] = target: EphA2 Sam (Homo sapiens) (UniProt P29317); test: ITC
[5] = target: EphA2 Sam (Homo sapiens) (UniProt P29317); test: SPR

Chain of UniProt O15357 (O15357 1193-1258): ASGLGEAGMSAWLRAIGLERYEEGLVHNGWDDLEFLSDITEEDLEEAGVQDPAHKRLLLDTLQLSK

- Kd [1]: 0.75 µM
- Kd [2]: 2.2 µM
Substance: EphA2 Sam (from UniProt P29317)

- Kd [3]: 222 µM
Substance: Pep2 (from UniProt Q92625)

- Kd [4]: 0.62 µM
- Kd [5]: 5.5 µM
Substance: Odin Sam1 (from UniProt Q92625)

- Kd [3]: 523 µM
Substance: Pep3 (from UniProt Q92625)
